B1: PS406: ClpS protein, SEQ ID NO: 29 (protein)
chain: MPDATTTPRTKTLTRTARPPLHKVILVNDDFTPREFVVRLLKAEFRTTGDEAQRIMITAHMKGSCVVAVFTREIAESKATRATETARAEGFPLLFTTEPEE
B2: PS410: ClpS protein, SEQ ID NO: 33 (protein)
chain: MGDDDQSSREGEGDVAFQTADPELKRPSLYRVVLLNDDYTPMEFVVHILEQFFAMNREKATQVMLAVHTQGKGVCGVYTKDIAETKAALVNDYSRENQHPLLCEVEELDDESR
B3: PS414: ClpS protein, SEQ ID NO: 37 (protein)
chain: MQAAGNEPPDPQNPGDVGNGGDGGNQDGSNTGVVVKTRTRTRKPAMYKVLMLNDDYTPMEFVVHVLERFFQKNREEATRIMLHVHRRGVGVCGVYTYEVAETKVTQVMDLARQNQHPLQCTIEKE
B4: PS396: ClpS protein, SEQ ID NO: 24 (protein)
chain: MSDNDVALKPKIKSKPKLERPKLYKVILVNDDFTPREFVIAVLKMVFRMSEETGYRVMLTAHRLGTSVVVVCARDIAETKAKEAVDFGKEAGFPLMFTTEPEE
B5: PS412: ClpS protein, SEQ ID NO: 35 (protein)
chain: MATKREGSTLLEPTAAKVKPPPLYKVLLLNDDYTPMEFVVLVLKKFFGIDQERATQIMLKVHTEGVGVCGVYPRDIAHTKVEQVVDFARQHQHPLQCTMEES
B6: PS397: ClpS protein, SEQ ID NO: 25 (protein)
chain: MSDNEVAPKRKTRVKPKLERPRLYKVILVNDDYTPRDFVVMVLKAIFRMSEEAGYRVMMTAHKLGTSVVVVCARDIAETKAKEATDLGKEAGFPLMFTTEPEE
B7: PS407: ClpS protein, SEQ ID NO: 30 (protein)
chain: MPSNKRQMCLSDIKNSFNESGIVDWHISPRLANEPSEEGDSDLAVQTVPPELKRPPLYAVVLLNDDYTPMEFVIEILQQYFAMNLDQATQVMLTVHYEGKGVAGVYPRDIAETKANQVNNYARSQGHPLLCQIEPKD
B8: PS404: ClpS protein, SEQ ID NO: 27 (protein)
chain: MPVSVTAPQTKTKTKPKVERPKLYKVILVNDDFTPREFVVRVLKAEFRMSEDQAAKVMMTAHQRGVCVVAVFTRDVAETKATRATDAGRAKGYPLLFTTEPEE
B9: PS408: ClpS protein, SEQ ID NO: 31 (protein)
chain: MTDPPSKGREDVDLATRTKPKTQRPPLYKVLLLNDDFTPMEFVVHILERLFGMTHAQAIEIMLTVHRKGVAVVGVFSHEIAETKVAQVMELARRQQHPLQCTMEKE
B10: PS398: ClpS protein, SEQ ID NO: 26 (protein)
chain: MPLKAQNRSIVGRRDEWPPPTTQSSSETKSESKRVSDTGADTKRKTKTVPKVEKPRLYKVILVNDDYTPREFVLVVLKAVFRMSEDQGYKVMITAHQKGSCVVAVYTRDIAETKAKEAVDLAKEIGFPLMFRTEPEE
B11: PS369: ClpS protein, SEQ ID NO: 2 (protein)
chain: MTSTLRARPARDTDLQHRPYPHYRIIVLDDDVNTFQHVVNCLVTFLPGMTRDQAWAMAQQVDGEGSAVVWTGPQEQAELYHVQLGNHGLTMAPLEPV
B12: PS413: ClpS protein, SEQ ID NO: 36 (protein)
chain: MMKQCGSYFLIKAVQDFKPLSKHRSDTDVITETKIQVKQPKLYTVIMYNDNYTTMDFVVYVLVEIFQHSIDKAYQLMMQIHESGQAAVALLPYDLAEMKVDEVTALAEQESYPLLTTIEPA
B13: PS411: ClpS protein, SEQ ID NO: 34 (protein)
chain: MTRPDAPEYDDDLAVEPAEPELARPPLYKVVLHNDDFTPMEFVVEVLQEFFNMDSEQAVQVMLAVHTQGKATCGIFTRDIAETKSYQVNEYARECEHPLMCDIEAAD
B14: PS415: ClpS protein, SEQ ID NO: 38 (protein)
chain: MALPETRTKIKPDVNIKEPPNYRVIYLNDDKTSMEFVIGSLMQHFSYPQQQAVEKTEEVHEHGSSTVAVLPYEMAEQKGIEVTLDARAEGFPLQVKIEPAER
B15: PS418: ClpS protein, SEQ ID NO: 41 (protein)
chain: MSDHNIDHDTSVAVHLDVVVREPPMYRVVLLNDDFTPMEFVVELLMHFFRKTAEQATQIMLNIHHEGVGVCGTYPREIAETKVAQVHQHARTNGHPLKCRMEPS
B16: PS409: ClpS protein, SEQ ID NO: 32 (protein)
chain: MPARLTDIEGEPNTDPVEDVLLADPELKKPQMYAVVMYNDDYTPMEFVVDVLQNHFKHTLDSAISIMLAIHQQGKGIAGIYPKDIAETKAQTVNRKARQAGYPLLSQIEPQG
B17: PS417: ClpS protein, SEQ ID NO: 40 (protein)
chain: MSNLDTDVLIDEKVKVVTTEPEKYRVILLNDDVTPMDFVINILVSIFKHSTDTAKDLTLKIHKEGSAIVGVYTYEIAEQKGIEATNESRQHGFPLQVKIERENTL
B18: PS416: ClpS protein, SEQ ID NO: 39 (protein)
chain: MTSQTDTLVKPNIQPPSLFKVIYINDSVTTMEFVVESLMSVFNHSADEATRLTQLVHEEGAAVVAILPYELAEQKGMEVTLLARNNGFPLAIRLEPAV
B19: PS405: ClpS protein, SEQ ID NO: 28 (protein)
chain: MVSIGAATVACAEGRPIFSGYFDWLAAMPETVTVPRTRLRPKTERPKLHKVILVNDDYTPREFVVTVLKGEFHMSEDQAQRVMITAHRRGVCVVAVFTKDVAETKATRASDAGRAKGYPLQFTTEPEE
B20: PS370: ClpS protein, SEQ ID NO: 3 (protein)
chain: MFNSLGTVLDPKKSKAKYPEARVIVLDDNFNTFQHVANCLLAIIPRMCEQRAWDLTIKVDKAGSAEVWRGNLEQAELYHEQLFSKGLTMAPIEKT

For the test, the system named is amino acid at a terminal position of a polypeptide. As to the kind of experiment: Amino acid binding preference of recognition proteins (Tables 1 and 2). As to conditions: Table 1, ClpS proteins; amino acid identity at a terminal position of a polypeptide; inferred from literature and/or demonstrated by the inventors. The text has this:
It should be appreciated that these sequences and other examples described herein are meant to be non-limiting, and recognition molecules in accordance with the application can include any homologs, variants thereof, or fragments thereof minimally containing domains or subdomains responsible for peptide recognition.
For B1, the “Binding Pref.” value was “F, Y, W”.

B2: the “Binding Pref.” value is on record as “F, W, L”.

B3: the “Binding Pref.” value is listed as “F, Y, W, L”.

In the case of B4, the “Binding Pref.” value is reported as “F, W”.

As for B5, the “Binding Pref.” value was “F, Y, W, L”.

Regarding B6, the “Binding Pref.” value was “F, Y, W”.

For the molecule B7, the “Binding Pref.” value is on record as “F, Y, W, L”.

As for B8, the “Binding Pref.” value is recorded as “F, Y, W”.

Consider B9, for which the “Binding Pref.” value is reported as “F, Y, W, L”.

In the case of B10, the “Binding Pref.” value is “F, W”.

B11: the “Binding Pref.” value is “F, Y, W, L”.

With B12, the “Binding Pref.” value is “F, Y, W, L”.

B13: the “Binding Pref.” value is reported as “F, Y, W, L”.

Regarding B14, the “Binding Pref.” value is on record as “F, Y, W”.

On to B15, for which the “Binding Pref.” value is “F, Y, W, L”.

Consider B16, for which the “Binding Pref.” value is “F, Y, W, L”.

Regarding B17, the “Binding Pref.” value is recorded as “F, Y, W”.

As for B18, the “Binding Pref.” value is “F, Y, W, L”.

For B19, the “Binding Pref.” value was “F, Y, W”.

For the molecule B20, the “Binding Pref.” value is reported as “F, L”.

For the origin of these results see US12065466B2, “Methods and compositions for protein sequencing” (Quantum-Si Incorporated, priority 2020, dated 2024).
